The source of these data is the supplement of paper PMC12042874.

± gives the uncertainty stated by the source.

A short description of series [1]: amyloid nucleation score (Sup35N fusion, yeast selection) (log enrichment); library NNK1; higher = more nucleation; inactive = no reads after selection. In outline:
(§1)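 Three technical output replicates were used for random libraries. Psi-negative yeast expressing peptides of 20 random codons fused to Sup35N were induced with 100 μM copper sulfate for 24 hours and grown 7 days at 30°C on medium lacking adenine and uracil, and input and output plasmid inserts were Illumina-sequenced, excluding sequences with under 100 input reads. The nucleation score is the DiMSum log enrichment of output over input reads, centred on the mode score of non-aggregating sequences.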

Series [2] can be described thus: amyloid nucleation score (Sup35N fusion, yeast selection) (log enrichment); library NNK2; higher = more nucleation; inactive = no reads after selection. In outline: as §1

For the substance ELSLRSSISVGEPVRDP, the amyloid nucleation score in series [1] turned out to be 1.14 ± 0.6. For the substance YVLTCFAELGGRRGVS, the amyloid nucleation score in series [1] is -0.531 ± 1.4. In turn, MMPYQSWDESSSCEDTLKVT gave an amyloid nucleation score in series [1] of 0.453 ± 0.35. The same measure, in the same setting: to SDMSPNTGFG belongs 0.073 ± 0.8; to RHSKMVQLRLSTYGVET, “inactive”. In series [1], KQRIFEMLPWGPRPLYPVWG displayed an amyloid nucleation score of 0.405 ± 0.43.

The substance TMVGTMVSMF gave an amyloid nucleation score in series [1] of -0.539 ± 0.45. In series [1], SWRLRIIGEWRAFGDNMDSR returned an amyloid nucleation score of 2.75 ± 0.15. The same measure, in the same setting: the value for AVGSDWDVYWVPRRMRMMCS was -1.84 ± 2.7; that for VKLSYGWVLSGAELTEYVTM was -0.782 ± 0.54; that for GIRKKVPIVVCNIFQFECKR was 2.51 ± 0.1.

For SFAFAAAYAGEEENRLLMRL, in series [1], the amyloid nucleation score is -0.478 ± 0.34. GNLSPSLCGHILLVTLIKGW had an amyloid nucleation score in series [1] of 0.291 ± 0.39.

IEISDMSWFRPVMFNDAKEL yielded an amyloid nucleation score in series [1] of 1.44 ± 0.53. In the case of NTSWGYFR, the amyloid nucleation score in series [1] was -0.426 ± 0.52. The same measure, in the same setting: to TLSLTNYELSKQSWMVLC belongs -0.236 ± 0.64.

Substance SIVLTIIKHFDYMFQDRGG returned an amyloid nucleation score in series [1] of 6.06 ± 0.07.

In series [1], ERYPCDALDVDLRLTLCRKG registered an amyloid nucleation score of 0.222 ± 0.48. The same measure, in the same setting: the value for RRTRKGWIMWPGGVDNHGNY was -0.313 ± 1.3; that for LSKISTVK was -0.778 ± 0.64; that for TYLYNYILASSLSHRALYNA was 1.62 ± 0.73. Same read-out and setting: the value for DFSYYLWGMSV was -0.991 ± 2.4.

The substance NIQSDRVHIFNELVRFSRWK gave an amyloid nucleation score in series [1] of 0.829 ± 0.97. As for ALGINFSWACG, the amyloid nucleation score in series [2] is 4.998 ± 0.043. Still for that read-out and setting: the value for STVEVRGYLDAVMVGVVSNS was 3.8 ± 0.052. As for YVMFRC, the amyloid nucleation score in series [2] was determined as 1.31 ± 0.32. Still for that read-out and setting: the value for SMIIARILHITCFYRAHRRV was -0.721 ± 0.64; that for FFCTQRFSVCVLGVHKLESL was 4.26 ± 0.048. Still for that read-out and setting: to YSLLILAPDFLNRHSSLGCI belongs -0.226 ± 1.1. On the same count and under the same terms, to RCVWYSGSRLWTYWQVWLMG belongs 0.458 ± 0.8; to AWFVYYVYRMFLNVSTSYWK, 0.074 ± 0.74; to NNSAECRMSIKRSACGLQIA, 0.961 ± 0.37. In series [2], IEHIRFTSSSAVVRRCGNC showed an amyloid nucleation score of 6.11 ± 0.066. Still for that read-out and setting: the value for NGCQV was 0.545 ± 0.6. LNVHCAGCCANWPLC: in series [2], the amyloid nucleation score was 9.041 ± 0.026. Same read-out and setting: to IGAQPRDGYN belongs -0.223 ± 0.49. Still for that read-out and setting: to VVEICFYW belongs 6.258 ± 0.034. STFDPCLRHPLIMCFYSVCA gave an amyloid nucleation score in series [2] of 0.014 ± 0.46. The same measure, in the same setting: to SKRRSSLQPS belongs -0.151 ± 0.31. Same read-out and setting: the value for AFLVYRKNNIPQYRVKVVDM was -0.225 ± 0.63.

As for NVIGENLGGLLNIFDTNVSF, the amyloid nucleation score entry in series [2] is “inactive”. Same read-out and setting: to RGCSVSTDDSVIRLTIAWQY belongs 0.33 ± 0.4; to HNYSD, 0.187 ± 0.56; to TTDCG, -0.712 ± 0.33. Still for that read-out and setting: the value for QSRCGYMGNRH was 0.166 ± 0.76. With SRWIGSECNPNCNLSVSYIL, the amyloid nucleation score in series [2] is 4.87 ± 0.057.

HRCSKPSWKVCIEWCRSRCV returned an amyloid nucleation score in series [2] of 0.614 ± 0.45. As for RAQYPFDSLSRGSGPVMWLS, in series [2], the amyloid nucleation score was 1 ± 0.57. Take RAFIINWALFGTRH: the amyloid nucleation score result in series [2] was “inactive”. Substance TNFFLNKRAGYNWLLVFEVI had an amyloid nucleation score in series [2] of -0.886 ± 0.48.

In turn, MHMAYSLNMSHSHIRAKAGM returned an amyloid nucleation score in series [2] of 1.06 ± 0.27.

In series [2], LPYRSCLWFFFDIRNDVRVG showed an amyloid nucleation score of 2.25 ± 0.12. Same read-out and setting: to GYWTGELH belongs “inactive”; to LSSTYRC, -0.24 ± 0.39. Same read-out and setting: to YTSSCILGRTFPVLKCNIDY belongs -1.33 ± 0.76. In series [2], IGWTFIHVPCSAQRFVAIVS showed an amyloid nucleation score of 0.827 ± 0.51.

Substance SIRRLTR displayed an amyloid nucleation score in series [2] of -0.172 ± 0.49. Same read-out and setting: the value for RFSYGVEANVMSPINTFLQW was 0.77 ± 0.23; that for PHHMIDAGASPSLN was -1.52 ± 0.62. The same measure, in the same setting: to IGRRLVDFWDVGPFCSHVII belongs -1.48 ± 1.1; to CERLDCSQKDSGCYWRRHGI, 0.471 ± 0.62; to VCVFEARVFSKLFVY, “inactive”. The same measure, in the same setting: to VVSKDDRDGNV belongs 3.14 ± 0.044; to IQHTVMWNALLLALAVSRLR, 0.667 ± 0.21; to TYGVVK, -0.047 ± 0.17. Consider GLGAFSSP, for which the amyloid nucleation score in series [2] is 0.247 ± 0.46. Same read-out and setting: the value for AAHQMMCRFGPIPF was 1.22 ± 0.23. Still for that read-out and setting: to GVYIRVVSHEWVLFW belongs “inactive”.

FWPYRPCKLYVIYLR: the amyloid nucleation score result in series [2] was “inactive”. Same read-out and setting: the value for LHSYPVKYGSRKDTRAKCGG was 0.605 ± 0.29.
